Data: PMC5934667 (Nucleic Acids Research, 2018)

Tests used:
RAD51 WT [1] = target: T1, RAD51 WT (human, UniProt Q06609 1-339); test: nuclease protection
RAD51 KA [2] = target: T2, RAD51 KA (human, UniProt Q06609 1-339, K133A); test: nuclease protection
RAD51 KR [3] = target: T3, RAD51 KR (human, UniProt Q06609 1-339, K133R); test: nuclease protection
RecA = RecA (bacterial, UniProt P0A7G6 1-353); test: stopped-flow Cy3 fluorescence
RAD51 KA [4] = target: T2, RAD51 KA; test: stopped-flow Cy3 fluorescence
RAD51 KR [5] = target: T3, RAD51 KR; test: stopped-flow Cy3 fluorescence
RAD51 KA [6] = target: T2, RAD51 KA; test: EMSA
RAD51 KR [7] = target: T3, RAD51 KR; test: EMSA
RAD51 WT [8] = target: T1, RAD51 WT; test: EMSA
[9] = target: the molecule itself; test: negative-stain EM, helical reconstruction

Chain of RecA (P0A7G6 whole entry): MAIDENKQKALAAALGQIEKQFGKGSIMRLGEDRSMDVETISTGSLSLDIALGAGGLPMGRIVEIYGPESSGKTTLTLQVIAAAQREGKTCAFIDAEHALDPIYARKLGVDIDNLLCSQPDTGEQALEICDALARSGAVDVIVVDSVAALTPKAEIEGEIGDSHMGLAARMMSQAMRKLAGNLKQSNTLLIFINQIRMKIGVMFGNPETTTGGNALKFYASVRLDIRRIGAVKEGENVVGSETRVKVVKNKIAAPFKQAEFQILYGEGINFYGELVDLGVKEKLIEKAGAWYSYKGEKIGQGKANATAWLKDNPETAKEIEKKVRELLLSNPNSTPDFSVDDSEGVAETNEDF

B1: 61-mer (ssDNA)
DNA: GACGCTGCCGAATTCTACCAGTGCCTTGCTAGGACATCTTTGCCCACCTGCAGGTTCACCC
binding result (RAD51 WT [1]): binds | binding result (RAD51 KA [2]): binds | binding result (RAD51 KR [3]): binds

B2: 5'-Cy3-dT79 (ssDNA)
DNA: TTTTTTTTTTTTTTTTTTTTTTTTTTTTTTTTTTTTTTTTTTTTTTTTTTTTTTTTTTTTTTTTTTTTTTTTTTTTTTT
Kd (RecA): < 1100 nM | binding result (RAD51 KA [4]): binds | binding result (RAD51 KR [5]): binds

B3: 83-mer (ssDNA)
DNA: AAATGAACATAAAGTAAATAAGTATAAGGATAATACAAAATAAGTAAATGAATAAACATAGAAAATAAAGTAAAGGATATAAA
binding result (RAD51 KA [6]): binds | binding result (RAD51 KR [7]): binds | binding result (RAD51 WT [8]): binds

B4: Human RAD51 K133R (natural protein)
chain: MAMQMQLEANADTSVEEESFGPQPISRLEQCGINANDVKKLEEAGFHTVEAVAYAPKKELINIKGISEAKADKILAEAAKLVPMGFTTATEFHQRRSEIIQITTGSKELDKLLQGGIETGSITEMFGEFRTGRTQICHTLAVTCQLPIDRGGGEGKAMYIDTEGTFRPERLLAVAERYGLSGSDVLDNVAYARAFNTDHQTQLLYQASAMMVESRYALLIVDSATALYRTDYSGRGELSARQMHLARFLRMLLRLADEFGVAVVITNQVVAQVDGAAMFAADPKKPIGGNIIAHASTTRLYLRKGRGETRICKIYDSPCLPEAEAMFAINADGVGDAKD
binding result [9]: binds

B5: Human RAD51 K133A (natural protein)
chain: MAMQMQLEANADTSVEEESFGPQPISRLEQCGINANDVKKLEEAGFHTVEAVAYAPKKELINIKGISEAKADKILAEAAKLVPMGFTTATEFHQRRSEIIQITTGSKELDKLLQGGIETGSITEMFGEFRTGATQICHTLAVTCQLPIDRGGGEGKAMYIDTEGTFRPERLLAVAERYGLSGSDVLDNVAYARAFNTDHQTQLLYQASAMMVESRYALLIVDSATALYRTDYSGRGELSARQMHLARFLRMLLRLADEFGVAVVITNQVVAQVDGAAMFAADPKKPIGGNIIAHASTTRLYLRKGRGETRICKIYDSPCLPEAEAMFAINADGVGDAKD
binding result [9]: binds
